Data: the supplement of paper PMC11865577

How the values were obtained:
Assay in all cases: pull-down binding Z-score (relative to library population); higher = stronger binding
[1] = test system: G-clamp-N3 (biotin conjugate); settings: RNA library: Library-1 (pre-miRNA loops + repeats)
How it was run: (§1)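 Streptavidin beads bearing 100 pmol of a biotin-conjugated small molecule were incubated for 60 min at 25 °C with 1 μg of heat-folded, Cy5- or Cy3-end-labelled RNA library in phosphate/NaCl/KCl buffer. Hot SDS eluted the RNA that stayed bound after three washes, and this RNA was hybridised for 20 h at 55.5 °C to a DNA barcode microarray. Binding was expressed as a Z-score against the library mean and standard deviation, after subtraction of a beads-only signal and trimmed averaging of barcoded replicate probes.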

[2] = test system: TO-3-N3 (biotin conjugate); settings: RNA library: Library-2
How it was run: as §1

[3] = test system: TO-3-N3-2 (biotin conjugate); settings: RNA library: Library-2
How it was run: as §1

TO-N3 (biotin conjugate) = settings: RNA library: Library-2
How it was run: as §1

[4] = test system: TO-N3-2 (biotin conjugate); settings: RNA library: Library-2
How it was run: as §1

Sequence | pull-down binding Z-score [1] | pull-down binding Z-score [2] | pull-down binding Z-score [3] | pull-down binding Z-score (TO-N3 (biotin conjugate)) | pull-down binding Z-score [4]
GAGUAUUUUAAUACUGGCAUACUC [hsa-mir-1263] | -0.0468 | -0.584 | 0.095 | -0.837 | -0.98
UUUCAGAUAACUCGGGA [hsa-mir-4320] | -0.732 | 0.173 | -0.229 | 0.116 | 0.00433
CUGUGGCCGGUCCCAG [hsa-mir-4656] | -0.405 | 1.39 | -0.0683 | 1.45 | 0.902
UUCUAAUGCCAAGAA [hsa-mir-1279] | -0.241 | 0.835 | -0.117 | 0.773 | -0.306
UUUGUCAUUAAAGUAAUGCAAA [hsa-mir-548m] | -0.115 | 0.175 | -0.211 | 0.0311 | -0.856
GUGGCUUCAACCAAGUUCAAAGUCAC [hsa-mir-3186] | -1.08 | -0.304 | -0.378 | -0.441 | -0.383
CAGUGAGCCAAGAUCGUGCCACUG [hsa-mir-1273d] | -0.48 | -0.172 | -0.179 | -0.147 | -0.0234
AGAGAUGAGCAUAAAGUUUUU [hsa-mir-6086] | -1.36 | 0.0616 | -0.12 | -0.104 | -0.389
GGGCGUGGUGGACAGCGAUGCAUCCC [hsa-mir-6803] | 1.56 | 0.532 | 0.187 | 0.84 | 1.19
AAUCCCAGCACUUUGGGAG [hsa-mir-3929] | 0.566 | 0.0452 | -0.0338 | 0.0138 | 0.171
ACGUGACCUCCUGGGCCUG [hsa-mir-6770-1_6770-3_6770-2] | -0.342 | 0.505 | 0.131 | 0.829 | 1
GCACUCUGUAGUUUGGGUACACAGUGC [hsa-mir-5011] | 1.49 | -0.741 | -0.259 | -0.77 | -0.478
CACACACAAUCACCAUGUG [hsa-mir-3118-1] | -0.57 | -0.577 | -0.386 | -0.942 | -1.07
AGCGCGGCGACCGUAACUCCU [hsa-mir-1237] | -0.629 | 0.152 | 0.313 | 0.724 | 1.65
UCACAAUUGCGCUACAGAACUGUUGA [hsa-mir-203b] | 0.254 | 0.859 | 0.314 | 1.12 | 0.308
CUCAUGUAAACUAAAACAUGAU [hsa-mir-508] | -1.91 | 0.0647 | -0.244 | -0.229 | -0.891
GUAGAUUGAAAGCCCUAAUUUUAC [hsa-mir-3941] | -0.805 | -0.486 | 0.306 | -0.0427 | 0.452
GCAGCCUUCUGCCUUUGGCUUUCUGAAGCGAGCUGA [hsa-mir-7158] | -0.699 | 0.327 | 0.292 | 0.769 | 1.09
AUGGAGGCUGCUUCUCCUCAGCAGCUGCCAUA [hsa-mir-3651] | 0.277 | -0.15 | -0.382 | -0.13 | 0.366
CCCAAGCAGGCUUUGUGUGAGCAGUGAGGCUAUUUAUUCACUUGGGUGCGAGCUCACACGAAGCCUGCUUGGG [hsa-mir-6839] | 1.44 | 0.33 | 0.815 | 0.551 | 0.665
CUCACGUGUGCCUGCCUGUGAG [hsa-mir-339] | -0.747 | -1.01 | -0.521 | -0.555 | 1.55
GGCGCUGUCUUGAGACAUUCGCGCAGUGCA [hsa-mir-3177] | -0.296 | -0.111 | -0.209 | 0.646 | 2.23
GCUGGGGACUGGAGAA [hsa-mir-4489] | 2.08 | 2.13 | 1.32 | 2.4 | 1.64
UUGAUGUCAGGUUAUCCCCAAGCAUAACCUCAC [hsa-mir-4639] | -1.21 | -0.576 | -0.186 | -0.499 | -0.0627
GUAUACUGAGCUUAUGUAUGCAUCUGCAUAC [hsa-mir-5591] | 0.344 | 0.357 | 0.0113 | 0.39 | 0.0714

Sequence | pull-down binding Z-score [1] | pull-down binding Z-score [2] | pull-down binding Z-score [3] | pull-down binding Z-score (TO-N3 (biotin conjugate)) | pull-down binding Z-score [4]
CGACUCCGUGGCAGAGUUCA [hsa-mir-3666] | -1.1 | 0.331 | -0.00234 | 0.805 | 0.845
CCAUGCUGUUUAAGCCUAGCAUAG [hsa-mir-4423] | -0.374 | 0.0223 | -0.16 | 0.208 | 0.476
GGAGAGGAUCCACCUGUCCUGUCC [hsa-mir-6165] | 0.202 | 0.416 | -0.113 | 0.374 | 0.393
GCAGAAAUCACUCCAGGAGCAACUGA [hsa-mir-936] | -0.3 | -0.365 | 0.0585 | 0.625 | 0.712
ACGAUAUAGGUAUGUAUGUAUGUAUGUAUAAAAGCAGGGCAGUAUAUAUAUCGU [hsa-mir-4536-2] | 1.53 | 0.847 | 0.723 | 0.862 | 0.482
GUGAGAGAUGCUUCUAGAUCCAGGAGGCAGACCUCAA [hsa-mir-4325] | -0.658 | 0.524 | 0.123 | 0.822 | 0.879
GUCAUUACUUUCAAUAGC [hsa-mir-548p] | 0.0268 | -0.59 | -0.254 | -0.684 | -0.372
AGUUCCUGAUUAAGAAAUGGAAUU [hsa-mir-4699] | -0.224 | -0.435 | -0.107 | -0.814 | -1
GUUUCUGUUGUCUGAAAGGAAAGAAAG [hsa-mir-520e] | -1.01 | -0.489 | -0.346 | -0.486 | 0.25
GUGAGCUGGAAAUGGGGUGCUAC [hsa-mir-598] | 1.37 | 1.46 | 0.651 | 1.5 | 0.962
AUAGUUUUAGGGUCACACCCACCACUGGGAGAUAACUAU [hsa-let-7a-1] | 0.294 | 0.853 | 0.205 | 0.607 | -0.0919
GUCAGGUGAUGGUGAUAAGGUCAAGGCCUG [hsa-mir-6853] | 0.547 | -0.0611 | -0.0266 | 0.388 | 1.03
UCCUGAUGGUCCCCUCCCCAGGG [hsa-mir-185] | -1.02 | 0.122 | -0.187 | 0.275 | 0.784
GGUUCAAGUUUGGCUCCAUCUUUAUGAAA [hsa-mir-4506] | -0.636 | -0.0094 | 0.109 | 0.0775 | 0.415
GGCAUCCCCAUUGCU [hsa-mir-4304] | -0.987 | 0.527 | -0.113 | 0.343 | 0.191
GAGUCAGAAAAACUAC [hsa-mir-601] | -1.28 | 0.125 | -0.0131 | 0.484 | 0.271
UCAGCUGUGGAAAGUAAGAAAGCUGG [hsa-mir-30c-2] | -0.0598 | 0.97 | 1.22 | 1.28 | 1.31
GUUGACUGUUGAAUCUCAUGGCAAC [hsa-mir-21] | -0.474 | -0.114 | -0.186 | 0.0029 | 0.204
GUUCAGAGUCUGUUUUUGUCUAGC [hsa-mir-29c] | -0.124 | -0.508 | 0.0089 | -0.313 | -0.0332
CUUUUAGAGUAAUUGUGAAACUGUUUUUCAAAG [hsa-mir-562] | 0.748 | -0.531 | -0.0695 | -0.769 | -0.462
GGGAUAUUUGCAUUAUACUUAUCC [hsa-mir-5009] | -0.101 | 0.0656 | 0.015 | -0.0499 | -0.458
GGCGACUGGUGUCUAAUUUGUUUGUC [hsa-mir-4429] | 0.682 | -0.313 | -0.265 | -0.37 | -0.308
UCCUGAGACAGGA [hsa-mir-4261] | -0.47 | -0.563 | -0.5 | -0.807 | -1.02
CCCUAGGACUUACUUGUGCAGGG [hsa-mir-4253] | -0.421 | -0.256 | -0.403 | -0.303 | -0.69
CAGCUGUUGUCUCCAGAGCAUUCCAGCUG [hsa-mir-191] | -0.433 | 0.371 | -0.002 | 0.648 | 1.46

Sequence | pull-down binding Z-score [1] | pull-down binding Z-score [2] | pull-down binding Z-score [3] | pull-down binding Z-score (TO-N3 (biotin conjugate)) | pull-down binding Z-score [4]
UUCGCGGUUGGGCU [hsa-mir-3143] | 0.897 | 1.21 | 0.258 | 1.33 | 0.693
GACAUGCUCUGACUCCCCUGAUGUC [hsa-mir-6852] | 0.588 | -0.0796 | 0.244 | 0.286 | 1.18
GCCAUGGAAAGUAAUGGC [hsa-mir-548ax] | 0.538 | -0.0453 | -0.112 | -0.269 | 0.319
UCAGACACAUCAGAUCCCUUAUCUGUAAAAUGGGCAUGA [hsa-mir-640] | 0.152 | -0.19 | -0.013 | 0.00353 | 0.521
AAGUGCCGUCCUCAUGAGCCCCU [hsa-mir-6769b] | -0.873 | 0.296 | 0.181 | 0.59 | 0.802
UUCUUUUUUCUGAAAUUCUUCAGGAAGGA [hsa-mir-3167] | -0.0544 | 0.368 | 0.823 | 0.0883 | -0.017
CCAAGCUUAGUUUGG [hsa-mir-1302-11_1302-10_1302-3_1302-2_1302-9] | 0.00542 | 0.74 | -0.446 | 0.572 | -0.61
GUGUAGGGGUGGCUACAC [hsa-mir-4717] | 0.957 | 0.385 | 0.281 | 0.346 | 0.235
UGUUUCUUUAUUGAGGACGAAACA [hsa-mir-329-2] | 0.973 | -0.144 | -0.343 | -0.5 | -0.89
GAGAACUCACGGUGCCUGUGGUUCGA [hsa-mir-3125] | -0.479 | -0.41 | -0.203 | 0.312 | 1.49
UUCAUUCAUUCGUUUGCACAUUCGGUGAA [hsa-mir-493] | 0.183 | -0.556 | -0.21 | -0.736 | -0.394
GCUAGUGCUGGCUCAAUGCAAUGC [hsa-mir-502] | -0.151 | -0.322 | -0.0546 | -0.0527 | 0.637
GCGGCCGCGCUGGCCGCU [hsa-mir-3665] | 1.02 | -0.0786 | -0.548 | -0.0622 | 0.524
CCUCAAUCACUUGCCAGAGAGAUUGG [hsa-mir-1200] | -1.09 | 0.0255 | -0.188 | -0.196 | -0.136
UUCAGAUUUUGGAACAUUUCGGAUUUUGGA [hsa-mir-1290] | 2.01 | -0.172 | -0.35 | -0.297 | -1.15
AAGGUGGAGUUCUGGGUGCUGUUUUCCCACUCU [hsa-mir-378i] | -0.335 | 0.0547 | 0.299 | 0.173 | 0.429
GCCUUGUGGCAUGGAGUUCAAGC [hsa-mir-107] | 0.5 | 0.468 | 0.0909 | 0.851 | 1.54
AGAUGUGUUUCCAUUCCACUAUCAUAAU [hsa-mir-365a] | -0.718 | -0.141 | -0.128 | -0.0846 | -0.292
UCCUGAUCUGAUGGAAGUCAUGA [hsa-mir-7843] | -0.244 | -0.312 | -0.16 | -0.0481 | 0.409
CGAUAAACCCCUAAAUAGGGACUUUCCCG [hsa-mir-484] | -0.934 | -0.473 | -0.266 | -0.511 | -0.157
GCUGGAUUUCCCAGCUUGACUCUAAC [hsa-mir-200a] | -0.177 | -0.14 | -0.242 | -0.337 | -0.215
UGCCAUUACUCUCAGUGGCA [hsa-mir-548y] | -0.0483 | -0.836 | -0.564 | -1.16 | -1.01
UUGAACUUCAUUUCUCAUGCUCA [hsa-mir-6870] | -1.6 | -0.278 | 0.277 | -0.104 | 0.145
CUGUUGUGCCUAAUUCAGAG [hsa-mir-296] | -0.279 | -0.165 | 0.0218 | 0.0489 | 0.492
UUUCUGUUGUCUGAAAGAAAAGAAC [hsa-mir-523] | -0.976 | -0.301 | 0.0657 | -0.0983 | 0.513
